The chains are these.
B1: Epidermal growth factor receptor substrate 15 (Homo sapiens), P42566 (parent)
chain: MAAAAQLSLTQLSSGNPVYEKYYRQVDTGNTGRVLASDAAAFLKKSGLPDLILGKIWDLADTDGKGILNKQEFFVALRLVACAQNGLEVSLSSLNLAVPPPRFHDTSSPLLISGTSAAELPWAVKPEDKAKYDAIFDSLSPVNGFLSGDKVKPVLLNSKLPVDILGRVWELSDIDHDGMLDRDEFAVAMFLVYCALEKEPVPMSLPPALVPPSKRKTWVVSPAEKAKYDEIFLKTDKDMDGFVSGLEVREIFLKTGLPSTLLAHIWSLCDTKDCGKLSKDQFALAFHLISQKLIKGIDPPHVLTPEMIPPSDRASLQKNIIGSSPVADFSAIKELDTLNNEIVDLQREKNNVEQDLKEKEDTIKQRTSEVQDLQDEVQRENTNLQKLQAQKQQVQELLDELDEQKAQLEEQLKEVRKKCAEEAQLISSLKAELTSQESQISTYEEELAKAREELSRLQQETAELEESVESGKAQLEPLQQHLQDSQQEISSMQMKLMEMKDLENHNSQLNWCSSPHSILVNGATDYCSLSTSSSETANLNEHVEGQSNLESEPIHQESPARSSPELLPSGVTDENEVTTAVTEKVCSELDNNRHSKEEDPFNVDSSSLTGPVADTNLDFFQSDPFVGSDPFKDDPFGKIDPFGGDPFKGSDPFASDCFFRQSTDPFATSSTDPFSAANNSSITSVETLKHNDPFAPGGTVVAASDSATDPFASVFGNESFGGGFADFSTLSKVNNEDPFRSATSSSVSNVVITKNVFEETSVKSEDEPPALPPKIGTPTRPCPLPPGKRSINKLDSPDPFKLNDPFQPFPGNDSPKEKDPEIFCDPFTSATTTTNKEADPSNFANFSAYPSEEDMIEWAKRESEREEEQRLARLNQQEQEDLELAIALSKSEISEA
partner: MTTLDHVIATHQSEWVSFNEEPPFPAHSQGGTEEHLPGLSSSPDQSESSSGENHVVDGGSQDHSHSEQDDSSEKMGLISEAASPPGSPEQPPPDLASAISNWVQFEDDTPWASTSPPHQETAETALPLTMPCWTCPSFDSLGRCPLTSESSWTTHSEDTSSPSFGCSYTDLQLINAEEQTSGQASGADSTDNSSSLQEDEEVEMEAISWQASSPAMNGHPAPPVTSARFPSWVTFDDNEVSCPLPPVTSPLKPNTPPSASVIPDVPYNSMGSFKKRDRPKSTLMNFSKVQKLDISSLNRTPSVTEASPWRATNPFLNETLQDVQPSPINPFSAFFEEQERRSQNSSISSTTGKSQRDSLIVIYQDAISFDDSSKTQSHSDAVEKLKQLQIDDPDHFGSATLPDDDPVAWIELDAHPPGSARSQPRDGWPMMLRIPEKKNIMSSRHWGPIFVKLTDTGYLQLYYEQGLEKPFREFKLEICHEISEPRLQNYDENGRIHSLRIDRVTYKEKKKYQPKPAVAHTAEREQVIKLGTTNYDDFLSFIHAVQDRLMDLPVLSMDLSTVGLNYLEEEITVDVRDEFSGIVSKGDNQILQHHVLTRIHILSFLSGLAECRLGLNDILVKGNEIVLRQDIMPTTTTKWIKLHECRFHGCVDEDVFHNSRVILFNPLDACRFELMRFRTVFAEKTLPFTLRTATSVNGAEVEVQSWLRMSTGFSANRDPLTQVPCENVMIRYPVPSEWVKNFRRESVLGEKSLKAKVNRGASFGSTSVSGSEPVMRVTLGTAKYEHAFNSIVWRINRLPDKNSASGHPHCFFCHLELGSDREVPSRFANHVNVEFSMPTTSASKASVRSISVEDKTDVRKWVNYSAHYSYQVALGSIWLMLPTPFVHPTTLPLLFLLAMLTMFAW

The first assay covers variants of B1. The settings on record: with ston2_human STON2, Q8WXE9.
Consider V154E, for which the “effect of a mutation on the interaction” value is “decreasing interaction”.

A further assay covers variants of B1. The conditions noted are these: with ston2_human STON2, Q8WXE9. The source holds these as a separate data set.
On to V154E, for which the “effect of a mutation on the interaction” value is reported as “disrupting interaction”.

Variants of B1 are the subject of the next assay. The conditions noted are these: with ston2_human STON2, Q8WXE9. The source holds these as a separate data set.
As for W266A, the “effect of a mutation on the interaction” value is given as “decreasing interaction”.

The variants in another assay derive from B1. The settings on record: with ston2_human STON2, Q8WXE9. This is another data set of the same source.
For W169A, the “effect of a mutation on the interaction” value is “decreasing interaction”.

Variants of B1 are the subject of the next assay. The settings on record: with ston2_human STON2, Q8WXE9. This is another data set of the same source.
With W169A, the “effect of a mutation on the interaction” value was “disrupting interaction”.

In another assay the parent is B1. The conditions noted are these: with ston2_human STON2, Q8WXE9. This is another data set of the same source.
On to Y193D, for which the “effect of a mutation on the interaction” value was “decreasing interaction”.

For the origin of these results see IntAct's records for PubMed 18200045.
